Assay results: the supplement of paper PMC12042874
± gives the uncertainty stated by the source.

Assay: amyloid nucleation score (Sup35N fusion, yeast selection) (log enrichment); library NNK2; higher = more nucleation; inactive = no reads after selection
Outline: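 For the nucleation score, DiMSum gave the log enrichment of output over input reads, centred on the mode score of non-aggregating sequences. Psi-negative yeast expressing Sup35N fused to peptides of 20 random codons were induced with 100 μM copper sulfate for 24 hours and grown 7 days at 30°C on medium lacking adenine and uracil. Input and output plasmid inserts were Illumina-sequenced, and sequences with under 100 input reads were excluded.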

Substance	amyloid nucleation score
PTRCRVSYKRLRCSQLSLQL	-0.012 ± 0.79
PTRVKIFFQRMCGVVAVGWS	1.42 ± 0.39
PTSDALLKCSAPFCSVRPVP	0.138 ± 0.76
PVCFGIEVYDVRFVASNVPG	0.313 ± 0.48
PVCWAAFRYTYKARMKRWSK	5.06 ± 0.055
PVFCTLYHAAWSHRIRISVF	-1.57 ± 0.54
PVFRFTSGPLDKNCVYRVN	0.564 ± 0.57
PVGEEVADVMLTFYKHHLVD	-0.913 ± 1.1
PVIFGTR	0.192 ± 1
PVLDGHCSWGGLSTAEETDR	0.29 ± 0.29
PVWGSTCWFDVTWVRFKLFW	2.61 ± 0.11
PWCGRSMYSVSGKGQMWMRA	1.03 ± 0.4
PWFKTFWSNMWAVTGW	-0.436 ± 1.1
PWHTSFALERKDMGHK	-0.094 ± 0.36
PWRRISMVVSWQYIEFIKYL	-0.832 ± 0.78
PWVSILLVPMYQRHLTPHPE	-0.121 ± 1.1
PYLFMESMKD	0.117 ± 0.79
PYRPHYAAVLRLAR	0.08 ± 0.33
PYSTTNGHSGVWLRWLKGPC	0.569 ± 0.27
PYWYYVFCS	-0.689 ± 0.49
PYYTIVMFAFYGLLTVRMGI	0.706 ± 0.4
QAHATFSILRTISAVFSPMQ	5.973 ± 0.057

Substance	amyloid nucleation score
QAISVEVVGYRSNLESFTIW	1.71 ± 0.11
QAWYRLVCIASYLFYEGFNV	0.193 ± 0.13
QCLIDWSFTFLLNVVLDYFY	inactive
QCWLGTGFLRVLACAVAFLY	inactive
QDCKAISSCLFRLLPELSLR	-0.92 ± 1.1
QDDGM	-0.826 ± 0.41
QDNFQFFAVSMRGCDCTGVS	6.96 ± 0.048
QDPFQIRLLVVLNFDNLYLW	2.08 ± 0.1
QEAALG	1.27 ± 0.35
QFCSDCV	-0.9 ± 0.76
QFRAWWFTSVDRTPSDNHTV	4.99 ± 0.059
QFVGFVRWFVWEWGLLVID	0.706 ± 0.81
QFVSDALVWGGITSMGWLMR	0.756 ± 0.4
QGAVLTL	-1.12 ± 0.76
QGLMIVINGSSYYVYVCLKG	1.09 ± 0.12
QGSNCLHYRLSIIS	-1.05 ± 1.1
QHFDLVATGMGYSWAMLYFA	0.776 ± 0.43
QHSLAMSSHKLSTTVEESWP	0.818 ± 0.45
QIIRPCVRRDKTGFIALVMG	1.27 ± 0.49
QILSRGFAPWT	-1.54 ± 0.78
QIPVELNNVLNLYLVLCRIE	-0.459 ± 1.1
QIQVYMNALLTRLSSIILIF	-0.93 ± 0.55

Substance	amyloid nucleation score
QIVIWVRLYFNVFSRSRSRV	1.05 ± 0.36
QKMLLKIWIVDRNTYSAVLN	-0.425 ± 0.74
QKMRFYWLVMMAV	-0.283 ± 1
QKTWEIANCFAELEKKIRQG	2.4 ± 0.069
QLENMCFFSPLQTYMLDRNW	-1.47 ± 0.41
QLESKRWWDIGWCSYLAGGW	4.92 ± 0.068
QLNIHLMNLRI	9.23 ± 0.056
QLNVIDIYTSGWISFP	-1.06 ± 0.26
QLPSR	-0.243 ± 0.31
QLRRFERMLSLVM	1.31 ± 0.3
QLVMCGHEDQYIRSDRSERN	-0.112 ± 0.25
QLVPRHNGTAKGCSGPLTRV	0.402 ± 0.26
QLVYCVNFVFFARVTNRSAR	3.95 ± 0.06
QMETSFL	-1.58 ± 1.1
QMICFHSWLGGSSLTVFHHC	3.84 ± 0.12
QMQYFKATYSI	-0.613 ± 0.44
QNACH	-0.011 ± 1.1
QNECKIMTLIFCLLRSKQYY	0.005 ± 0.65
QNEVSLEVVFVKEGVGFDRL	-0.665 ± 0.76
QNTMALKHNICPEHSSMWNS	2.64 ± 0.066
QPCLHAMV	0.319 ± 0.56
QPGSGFSVAPVQVKHNTVCR	0.397 ± 0.33

Substance	amyloid nucleation score
QPPMRVYSLVMLCDAVSSKD	0.339 ± 0.56
QPSFPTHCQDRFVEECINEV	inactive
QRADQWVSRKLRPSIARL	1.52 ± 0.34
QRCRFPYDTGSSTHSWTEVG	0.614 ± 0.35
QRVMHTYYVS	0.073 ± 0.24
QSCWIFSGHSE	-1.03 ± 0.44
QSKMH	-0.321 ± 0.19
QSMSNACFVMGTRCITKRAA	4.633 ± 0.044
QSPNHVHSLRPGLDQLSALP	-0.08 ± 0.39
QSRSMNRHNWHTFMLWAWER	-0.695 ± 0.61
QSVGATNLLG	0.501 ± 0.34
QSWSRQSATGPWTLVCQRRP	0.69 ± 0.51
QVLCIVLDTSMIGTKACLGV	0.325 ± 0.57
QVLTMNRLWVVPPAHYCVVG	0.84 ± 0.53
QVTSNRSTGRRYILNQMC	-0.337 ± 1.1
QYQKIIWISCSIPMQMTISA	-0.097 ± 1.1
QYWTNRCKDWERVSRKPLKL	inactive
QYYELWSFTDWVWDLWGVQS	-0.568 ± 0.63
RADGSFMKLLA	-0.628 ± 0.5
RAEVNA	0.517 ± 0.26
